Molecular target: T1, GAL4 DBD alone (pDBD) (yeast, UniProt P04386 1-147)
T1 construct: Control bait
Test: yeast two-hybrid, β-galactosidase activity

T1 sequence (P04386 1-147 limits assumed): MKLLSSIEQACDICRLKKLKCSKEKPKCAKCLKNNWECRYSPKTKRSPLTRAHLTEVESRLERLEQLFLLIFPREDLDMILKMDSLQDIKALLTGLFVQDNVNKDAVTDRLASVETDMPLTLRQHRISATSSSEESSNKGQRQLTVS

Row | Binder | binding result
1 | GAL4 AD-ZHX1 fusion pAD-ZHX1 (345-463) (other, human, UniProt Q9UKY1 345-463, looked up, not shown: large carriers, range 345-463) PEEVEEARRKQFNGTVHTVPQTITVIPTHISTGSNGLPSILQTCQIVGQPGLVLTQVAGTNTLPVTAPIALTVAGVPSQNNIQKSQVPAAQPTAETKPATAAVPTSQSVKHETALVNPD | no binding
2 | GAL4 AD-ZHX3 fusion pAD-ZHX3 (303-364) (other, not shown: large carriers, It is the HD1 region) LSSIPTYNAAMDSNSFLKNSFHKFPYPTKAELCYLTVVTKYPEEQLKIWFTAQRLKQGISWS | no binding
3 | GAL4 AD-ZHX1 fusion pAD-ZHX1 (430-564) (other, human, UniProt Q9UKY1 430-564, looked up, not shown: large carriers, range 430-564) QVPAAQPTAETKPATAAVPTSQSVKHETALVNPDSFGIRAKKTKEQLAELKVSYLKNQFPHDSEIIRLMKITGLTKGEIKKWFSDTRYNQRNSKSNQCLHLNNDSSTTIIIDSSDETTESPTVGTAQPKQSWNPF | no binding
4 | GAL4 AD alone (pACT2) (other, yeast, UniProt P04386 768-881, looked up, domain: AD; Control prey) ANFNQSGNIADSSLSFTFTNSSNGPNLITTQTNSQALSQPIASSNVHDNFMNNEITASKIDDGNNSKPLSPGWTDQTAYNAFGITTGMFNTTTMDDVYNYLFDDEDTPPNPKKE | no binding

Source: patent US20070014790A1 (JAPAN SCIENCE AND TECHOLOGY AGENCY, published 2007)
